Laboratory results published in publication PMC8584621.

Legend:
[1] = target: T1, SCO3932 (GntR-like, HutC subfamily) (Streptomyces coelicolor A3(2) M145) (UniProt Q9X9T6); experiment: DMS footprinting; settings: EMSA: 10 mM Tris-HCl pH 7.5, 50 mM KCl, 1 mM DTT, herring sperm DNA 100 ng, DTT/Tween20, 0.03 pmol probe in 16 uL, 20 min room temperature; footprint: same …
T1 sequence: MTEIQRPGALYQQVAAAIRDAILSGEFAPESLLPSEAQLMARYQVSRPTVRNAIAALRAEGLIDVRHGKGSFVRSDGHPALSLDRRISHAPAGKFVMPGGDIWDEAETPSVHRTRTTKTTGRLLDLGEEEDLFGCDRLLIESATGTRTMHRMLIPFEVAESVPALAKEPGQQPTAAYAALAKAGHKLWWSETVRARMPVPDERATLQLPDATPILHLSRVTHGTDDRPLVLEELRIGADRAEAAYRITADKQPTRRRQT

[2] = target: T1, SCO3932 (GntR-like, HutC subfamily) (Streptomyces coelicolor A3(2) M145); experiment: DNase I footprinting; settings: EMSA: 10 mM Tris-HCl pH 7.5, 50 mM KCl, 1 mM DTT, herring sperm DNA 100 ng, DTT/Tween20, 0.03 pmol probe in 16 uL, 20 min room temperature; footprint: same …
[3] = test system: SCO3932 (GntR-like, HutC subfamily) (Streptomyces coelicolor A3(2) M145); experiment: EMSA; settings: EMSA: 10 mM Tris-HCl pH 7.5, 50 mM KCl, 1 mM DTT, herring sperm DNA 100 ng, DTT/Tween20, 0.03 pmol probe in 16 uL, 20 min room temperature; footprint: same …
[4] = test system: SCO3932 (GntR-like, HutC subfamily) (Streptomyces coelicolor A3(2) M145); experiment: DNase I footprinting; settings: protein concentration giving protection, EMSA: 10 mM Tris-HCl pH 7.5, 50 mM KCl, 1 mM DTT, herring sperm DNA 100 ng, DTT/Tween20, 0.03 pmol probe in 16 uL, 20 min room temperature, footprint: same …

Question: How did the binding [1] turn out when “AAGGATCCGAATGGACTGCATTTCTGTGGCCTCCCTGGCCAATCCAGGACGTCCAACCTATTCGGACGTCACTTGTCCTTACGAGTGACAAGCTTGGAGCACTGTACGGCGAGAGCGCAACTACTTATGCTGACGAGTGATGTCGCGCGTGCGACGTGCCTACGACACCAGACCGGAGATGCCGAGATGACGGAGATCCAGAATTCTT (double strand) [p3932/3933 footprint probe]” was run?
Answer: Its binding is “binds”.

Question: And the binding [2]?
Answer: The binding was 100 nM.

Question: With p3932/3933 EMSA probe as the substance, how does the binding [3] read?
Answer: The binding was 1.9 nM.

Question: p3932/3933 footprint probe was tested. Which binding ([4]; sites K1, K2) did it give?
Answer: The binding was 100 nM.

Question: Which binding [3] does the source give for pactII-orf4 EMSA probe here?
Answer: The binding was 9.4 nM.

Question: With pactII-orf4 footprint probe as the substance, how does the binding ([4]; sites A1, A2) read?
Answer: Its binding is 800 nM.

Question: For pcpkA/D EMSA probe, which binding [3] is on record?
Answer: The binding was 9.4 nM.

Question: pcpkD footprint probe was tested. Which binding ([4]; site D) did it give?
Answer: Its binding is 800 nM.
